Measured values published in the nanobody polyreactivity screen of Harvey et al. (2022).

Assay: yeast display, Sf9 membrane polyspecificity reagent, FACS + sequencing; frameworks hold sequencing errors
In short: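 Sorting gates, low and high (top ~1%), were placed on anti-HA fluorescence to track expression and on streptavidin fluorescence to track reagent binding. A clone's polyreactivity label is taken from the gate it came out of. The reagent was 10% biotinylated, detergent-solubilized Sf9 membrane, applied for 1 hour at 4 °C to galactose-induced yeast display cells.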

Sequence | polyreactivity (PSR sort gate)
QVQLVESGGGLVQAGGSLRLICAASGRTLGGNDMGWYRQAPGKERELVAAITNSASTYADSVKGRFTISRDNAKNTVYLQMNSLKPEDTAVYYCNAPDPSDQHGDYWGQGTQVTVSS | low polyreactivity
QVQLVESGGGLVQAGGSLRLICAASGSIFAYNAMGWYRQAPGKERELVAAITDSGGSTFYADSVKGRFTISRDNAKNTVYLQMNSLKPEDTAVYYCATSGDRLVWGQGTQVTVSS | low polyreactivity
QVQLVESGGGLVQAGGSLRLICAASGSIFDFYAMGWYRQAPGKERELVAAISRNGGSTYYADSVKGRFTISRDNAKNTFYLQMNSLKPEDTAVYYCNKTVYVGAKEYDYWGQGTQVTVSS | high polyreactivity
QVQLVESGGGLVQAGGSLRLICAASGSIFFVYDMGWYRQAPGKERELVAAITWSGGRTTYADSVKGRFTISRDNAKNTVYLQMNSMKPEDTAVYYCAKAWPDHWYSRYDYWGQGTQVTVSS | low polyreactivity
QVQLVESGGGLVQAGGSLRLICAASGSIFGLYVMGWYRQAPGKERELVATITSGGSTYYADSVKGRFTISRDNAKNTVYLQMNSLKPEDTAVYYCNTRWTPSREYDYWGQGTQVTVSS | low polyreactivity
QVQLVESGGGLVQAGGSLRLICAASGSIFHVNSMGWYRQAPGKERELVAGISDGGSTYYADSVKGRFTISRDNAKNTVYLQMNSLKPEDTAVSYCAAESEQWYSYVLSYDWEYDYWGQGTHVTVSS | low polyreactivity
QVQLVESGGGLVQAGGSLRLICAASGSIFLYYAMGWYRQAPGKEMELVAAITSTGSTYYADSVKGRFTISRDNAKNTVYLQMNSLKPEDTAVYYCAAELRRLFYAYGYWGQGTQVTVSS | low polyreactivity
QVQLVESGGGLVQAGGSLRLICAASGSIFNQNSMGWYRQAPGKERELVAVISSGGRTSYADSVKGRFTISRDNAKNTVFLLMNSLKPEDTAVYYCNREGWHYGPYGYWGQGTQVTVSS | low polyreactivity
QVQLVESGGGLVQAGGSLRLICAASGSIFNYYAMGWYRQAPGKERELVAGITTSGGSTYYADSVKGRFTISRDNAKNTVHLQMNSLKPEDTAVYYCAAYDYISSTYFLDDYWGQGTQVTVSS | low polyreactivity
QVQLVESGGGLVQAGGSLRLICAASGSIFRKNAMGWYRQAPGKERELVAAITGTGRTTYADSVMGRFTISRDNAKNTVYLQRNSLKPEDTAVYYCAADVNYYQHRLYYWGQGTQVTVSS | low polyreactivity
QVQLVESGGGLVQAGGSLRLICAASGSIFSFYAMGWYRQAPGKERELVAAITSDGSTDYADSVKGRFTISRDNAKNTVYLQMNCLKPEDTAVYYCAADYIVRVVSRYRYGYEYWGQGTQVTVSS | low polyreactivity
QVQLVESGGGLVQAGGSLRLICAASGSIFTLYDMGWYRQAPGKERELVAAITSGGSTDYADSVKGRFTISRDNAKNTVYLQMNSLKPEDTAVYYCNAEAYPYWYRGASREYDYWGQGTQVTVSS | low polyreactivity
QVQLVESGGGLVQAGGSLRLICAASGSIFTYYVMGWYRQAPGKDRDLVAGISRAGSTNYADSVKGRFTISRDNAKNTVYLQMNSLKPEDTAVYYCAKSVWFVKHRKPHDYWGQGTQVTVSS | low polyreactivity
QVQLVESGGGLVQAGGSLRLICAASGSIFYRYAMGWYRQAPGKERELVAAISSNGVSTYYADSVKGRFTISRDNAKNTVYLQMNSLKPEDTAVYYCARDVYASPRLYTSRYNYWGQGTQVTVSS | low polyreactivity
QVQLVESGGGLVQAGGSLRLICAASGSIIHKNAMGWYRQAPGKERELVARITSSSGSTYYADSVKGRFTISRDNAKNTVYLQMNSLKPEDTAVYYFNAVYYHDVDFDYWGQGTQVTVSS | high polyreactivity
QVQLVESGGGLVQAGGSLRLICAASGSILYKYAMGWYRQAPGKERELVAAISSRGGNTYYADSVKGRFTISRDNAKNTVYLHMNSLKPEDTAVYYCAADMWAGKYGEYDYWGQGTQVTVSS | high polyreactivity
QVQLVESGGGLVQAGGSLRLICAASGSIQDWNAMGWYRQAPGKERELVAAITNGVSTHYADSVKGRFTISRDNAKNTVYLQMNSLKPEDTAVYYCAKAFWWRPEWWLRSARGSWGLGTQVTVSS | low polyreactivity
QVQLVESGGGLVQAGGSLRLICAASGSNFNPYAMGWYRQAPGKERELVAAINSGDSTNYADSVKGRFSISRDNAKNTLYLQMNSLKPEDTAVFYCANRYRRRYNYWGQGTQETVSS | high polyreactivity
QVQLVESGGGLVQAGGSLRLICAASGSTFATYSMGWYRQAPGKERELVAAITLRGGRTYYADSVKGRFTISRDNAKNTVYLQMNSLKPEDTAVYYCAAEYYYLSFGLTWWRGFDYWGQGTHVTVSS | high polyreactivity
QVQLVESGGGLVQAGGSLRLICAASGSTFAYNDMGWYRQAPGKERELVADIRSGGNTNYADSVKGRFTISRDNAKNTVYLQMNSLKPEDTAVYYCATDCYRIDVYHPDYRYDYWGQGTQVTVSS | low polyreactivity
QVQLVESGGGLVQAGGSLRLICAASGSTFGPYSMGWYRQAPGKERELVAAIDQISSSTHYADSVKGRFTISRDNAKNTVYLQMNSLKPEDTAVYYCNADEFRYGYFPHYDYWGQGTQVTVSS | low polyreactivity
QVQLVESGGGLVQAGGSLRLICAASGSTFGRNAMGWSRQAPGKERELVAAISSGGRTYYADSVKGRFTSSRDNAKHTVYVQLNSLKPEDSAVYYCARDDYGTLVKLYVRGFNYWGQGTQVTVSS | low polyreactivity

Sequence | polyreactivity (PSR sort gate)
QVQLVESGGGLVQAGGSLRLICAASGSTFKGYAMGWYIQSPGKERELVAAISWPGGRTSYADSVKGRFTISRDNAKNTVYLQMNSLKPEDTAVYYCNKAWWVQKGYFFYYWEQGTQVTVSS | high polyreactivity
QVQLVESGGGLVQAGGSLRLICAASGSTFLVYSMGWYRQEPGKERELVAAISYSGGSTYYADSVKGRFTISRDNSKNTVYLQLNSLKPEDTAVYYCNVEPVDRWYYKYDYWGQGTEVTVSS | low polyreactivity
QVQLVESGGGLVQAGGSLRLICAASGSTFPSYAMGWYRQAPGKERELVAAITWSGDSTYYADSVKGRFTILRDNAKNTVYLQMNSLKPEDTAVYYCAKDGGYPVGVLGGDDMEYWGQGTQVTVSS | low polyreactivity
QVQLVESGGGLVQAGGSLRLICAASGSTFQDYGMGWYRQAPGKERELVAAITTGDITNYADSVKGRFTISRDNAKKTVYLQMNSLKAEDTAVYYCNAEPKFYPDAGDDYWGQGTQVTVSS | low polyreactivity
QVQLVESGGGLVQAGGSLRLICAASGSTFRWNALRWYRQAPGKERELVAAITWSGGSTYYADSVKVRFTISRDNAKNTVYVQMNSLKPEDTAVYYCNACGLFQYDSWGQGTKVTVSS | low polyreactivity
QVQLVESGGGLVQAGGSLRLICAASGSTFRYYAMGWYRQAPGKEREFVAAISLRAGSTYYADSVKGRFTISRDNAKNTVYLQMNSLKPEDTAVYYCAARRASYGTRRYDYWGQGTQVTVSS | high polyreactivity
QVQLVESGGGLVQAGGSLRLICAASGSTFSENTMGSYRPAPGKERELVAAISFSGASTYYADSVKGRFTISRDYAKKTVYLQLNSLKPEDTAVYYCRRFTSSPKLALGEYDYWGQGTQVTVSS | low polyreactivity
QVQLVESGGGLVQAGGSLRLICAASGSTFTGYAMGWYRQAPGKERELVAAINWRGGTTYYADSVKGRFTISRDNAKNTVYLQMNSLKPEDTAVYYCNKYRISGLSKFYYWGQGTQVTVSS | high polyreactivity
QVQLVESGGGLVQAGGSLRLICAASGSTFTTYAMGWYRQAPGKEREFVAGISWSGGSTRYADSVKGRFTISRDNAKNTVYLQMNSLKPEDTAVYYCAAGRKRDSKYYYWGQGTQVTVSS | high polyreactivity
QVQLVESGGGLVQAGGSLRLICAASGSTFYTYAMGWYRQAPGKERELVAAITYSGGTTYYADSVKGRFTISRDSAKNTVYLQMNSLKPEDTAFYYCNTRSYYYSDDYWGQGTQVTVSS | low polyreactivity
QVQLVESGGGLVQAGGSLRLICAASGTFVTYMGWYRQAPGKERELVAAIRNGGSTNYADSVKGRFTISRDNAKNTVYLQMNSLKPEDTAVYYCAARVTYSRGYRGGSRTKYDYWGQGTQVTVSS | low polyreactivity
QVQLVESGGGLVQAGGSLRLICAASGTIFSDNEMGRYRQAPGKEREFVADISSDGSTYYADSVKGRFTISRDNAKNTVYLQMNSLKPEDTAVYYCDADPIFSLYYHYGHFDYWGQGTQVTVSS | low polyreactivity
QVQLVESGGGLVQAGGSLRLICAASGVNAMGWYRQAPGKEREFVAAITSIGGSTYYADSVKGRFTISRDNAKNSVYLQMNSLKPEDTAVYYCNTDRGPVKVSPLYESWGQGTQVTVSS | low polyreactivity
QVQLVESGGGLVQAGGSLRLICAASGYIFDYYAMGWYRQAPGKERELVAAISWSGGSTYYADSVKGRFTISRDNEKNTVSLQMNSLKPEDTAVYYCAAEGTYYGSDYWGQGTQVTVSS | high polyreactivity
QVQLVESGGGLVQAGGSLRLICAASGYIFKYYAMGWYRQAPGKERELVATINYSGGGTYYADSVKGRFTISRDNAKNTVYLQMNSLKPEDTAVYYCAAREKYISYSYYYWGQGTQVTVSS | high polyreactivity
QVQLVESGGGLVQAGGSLRLICAASGYIFYDYAMGWYRQAPGKERQLVATITSGGRTYADSVKGRFTISRDNAKNTVYLQMNSLKPEDTAVYYCAVDQYGAMDYWGQGTQVTVSS | low polyreactivity
QVQLVESGGGLVQAGGSLRLICAASGYNCKYYAMGWYRAAPGKERELVASITSGGRTNYADSVKGRFTISRDNAKNTVYLQMNSLKPEDTAVYYCASRKPWKFVRTYTYDYWGQGTQLTVSS | high polyreactivity
QVQLVESGGGLVQAGGSLRLICAASVSIFTKYAMGWYRQAPGKERELVADITRSGGSTYYADSVKGRFTISRDNAKNTVYLQMNSLKPEDTAVYYCAVDPVRYPYSYDYWGQGTQVTVSS | high polyreactivity
QVQLVESGGGLVQAGGSLRLICAAYGRIFQGYAMGWYRQAPGKERELVAAITLSGGSTYYADSVKGRFTISRDNAKNTVYLQMNSLKPEDTAVSYCNAYYPDEPSLYDYWGQGTQVTVSS | low polyreactivity
QVQLVESGGGLVQAGGSLRLICAAYGSTFKQYAMGWYRPAPGKERELVAAITRGGRTYYADSVKGRFTISRDNAKNTVYLQMNSLKPEDTAVYYCNAQSWRRYGHFYYWGQGTQVTVSS | high polyreactivity
QVQLVESGGGLVQAGGSLRLICADSGRIFRYNSRGWYRQAPAKERELVASISTGGSSTYYADSVKGRFTISRDNAKNTVYLQMNSLKPEYSAFYYCAATPYSYSARSYGPIYRYDYWGQGTQVTVSS | high polyreactivity
